Target: single chain C1q fusion polypeptide according to formula I (TAG-X1-C1qA-X2-C1qB-X3-C1qC-X4) (human)
Assay: C1q affinity chromatography, immobilised fusion polypeptide, linear NaCl gradient in 20 mM HEPES pH 7.4

single chain C1q fusion polypeptide according to formula I (TAG-X1-C1qA-X2-C1qB-X3-C1qC-X4) (human), sequence (main, as listed by the source): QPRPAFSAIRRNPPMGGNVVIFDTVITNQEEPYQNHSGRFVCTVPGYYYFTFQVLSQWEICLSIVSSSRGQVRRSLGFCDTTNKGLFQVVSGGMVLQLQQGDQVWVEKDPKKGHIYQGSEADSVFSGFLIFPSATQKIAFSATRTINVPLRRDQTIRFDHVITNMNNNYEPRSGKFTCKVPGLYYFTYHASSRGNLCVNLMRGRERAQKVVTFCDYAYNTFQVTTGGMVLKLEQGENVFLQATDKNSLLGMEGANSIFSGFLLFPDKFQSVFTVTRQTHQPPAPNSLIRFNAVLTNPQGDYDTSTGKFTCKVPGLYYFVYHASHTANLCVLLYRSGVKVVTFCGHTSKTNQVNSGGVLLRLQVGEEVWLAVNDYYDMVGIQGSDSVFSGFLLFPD

| Substance | retention time |
| --- | --- |
| Briakinumab (antibody) | 30.7 min |
| Ustekinumab (antibody) | 39.1 min |
